# Experimental data reported in patent US20050282743A1, “Molecular interactions in cells” (Arbor Vita Corporation, priority 2001, published 2005).
# “And” between values parts separate entries of the source, which are not always exact repeats. Equal entries are not always repeated.
# T1: GST-GRIP 1 PDZ domain 7 (Homo sapiens (Human)), Q9Y3R0
# T1 chain: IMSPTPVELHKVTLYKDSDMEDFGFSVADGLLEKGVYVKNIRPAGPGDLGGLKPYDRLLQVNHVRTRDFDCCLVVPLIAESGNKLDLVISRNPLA
# T2: GST-KIAA0382 PDZ domain 1 (Canis lupus familiaris (Dog) (Canis familiaris)), A0A8I3
# T2 chain: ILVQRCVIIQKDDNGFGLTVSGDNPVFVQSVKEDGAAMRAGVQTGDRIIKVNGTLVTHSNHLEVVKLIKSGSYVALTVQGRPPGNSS
# T3: GST-KIAA0807(S) PDZ domain 1 (Homo sapiens (Human)), Q6P0Q8
# T3 chain: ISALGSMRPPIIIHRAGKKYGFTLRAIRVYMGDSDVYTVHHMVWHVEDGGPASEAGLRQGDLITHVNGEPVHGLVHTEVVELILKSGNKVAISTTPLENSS
# T4: GST-KIAA1526 PDZ domain 1 (Homo sapiens (Human)), Q9P202
# T4 chain: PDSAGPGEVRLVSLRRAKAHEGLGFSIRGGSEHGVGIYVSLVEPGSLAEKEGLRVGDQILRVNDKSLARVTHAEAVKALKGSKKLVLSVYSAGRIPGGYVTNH
# T5: GST-KIAA1719 PDZ domain 6 (Homo sapiens (Human)), Q9C0E4
# T5 chain: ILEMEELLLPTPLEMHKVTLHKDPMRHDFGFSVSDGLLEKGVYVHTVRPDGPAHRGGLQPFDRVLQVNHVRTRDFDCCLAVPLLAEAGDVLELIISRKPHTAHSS
# T6: GST-MINT1 PDZ domain 2 (Mus musculus (Mouse)), B2RUJ5
# T6 chain: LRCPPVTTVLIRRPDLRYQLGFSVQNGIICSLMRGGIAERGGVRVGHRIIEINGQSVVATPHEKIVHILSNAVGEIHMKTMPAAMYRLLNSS
# T7: GST-MINT1 PDZ domains 1, 2, Q02410
# T7 chain: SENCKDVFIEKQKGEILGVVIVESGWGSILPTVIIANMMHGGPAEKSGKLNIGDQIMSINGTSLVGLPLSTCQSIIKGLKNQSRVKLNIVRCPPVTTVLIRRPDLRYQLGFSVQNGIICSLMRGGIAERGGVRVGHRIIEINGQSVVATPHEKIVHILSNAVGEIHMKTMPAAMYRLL
# T8: GST-Shank 1 PDZ domain 1 (Homo sapiens (Human)), Q9UPX8
# T8 chain: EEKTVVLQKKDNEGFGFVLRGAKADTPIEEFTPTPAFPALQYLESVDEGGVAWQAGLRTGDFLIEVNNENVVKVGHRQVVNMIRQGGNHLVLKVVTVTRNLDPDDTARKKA
# T9: GST-AIPC PDZ domain 1 (Homo sapiens (Human)), O15018
# T9 chain: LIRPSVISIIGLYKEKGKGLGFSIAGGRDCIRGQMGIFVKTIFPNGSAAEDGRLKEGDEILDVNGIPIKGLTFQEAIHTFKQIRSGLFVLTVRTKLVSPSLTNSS
# T10: GST-DLG1 PDZ domain 2 (Homo sapiens), Q12959
# T10 chain: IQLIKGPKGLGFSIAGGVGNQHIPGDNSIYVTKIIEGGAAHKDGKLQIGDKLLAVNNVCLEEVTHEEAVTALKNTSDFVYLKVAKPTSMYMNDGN
# T11: GST-DLG2 PDZ domain 2 (Homo sapiens (Human)), Q15700
# T11 chain: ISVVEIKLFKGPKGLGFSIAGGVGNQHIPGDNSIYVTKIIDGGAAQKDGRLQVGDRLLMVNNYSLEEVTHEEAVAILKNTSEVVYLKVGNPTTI
# T12: GST-FLJ 10324 PDZ domain 1 [GST: P08515]
# T12 chain: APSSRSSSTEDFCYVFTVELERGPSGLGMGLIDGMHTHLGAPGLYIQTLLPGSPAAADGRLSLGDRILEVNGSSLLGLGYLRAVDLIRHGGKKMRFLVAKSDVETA
# T13: GST-KIAA1634 PDZ domain 2 (Homo sapiens (Human)), Q5TCQ9
# T13 chain: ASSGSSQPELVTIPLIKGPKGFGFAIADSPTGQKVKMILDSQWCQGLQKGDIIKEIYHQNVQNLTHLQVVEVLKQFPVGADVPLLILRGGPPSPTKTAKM
# T14: GST-NeDLG PDZ domains 1, 2, Q92796
# T14 chain: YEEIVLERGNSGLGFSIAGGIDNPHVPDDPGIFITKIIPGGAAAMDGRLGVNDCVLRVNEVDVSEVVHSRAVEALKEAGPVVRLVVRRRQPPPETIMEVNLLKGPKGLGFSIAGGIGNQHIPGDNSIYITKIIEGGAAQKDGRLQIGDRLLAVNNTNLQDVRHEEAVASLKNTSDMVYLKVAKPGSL
# T15: GST-Outer Membrane PDZ domain 1 (Homo sapiens (Human)), P57105
# T15 chain: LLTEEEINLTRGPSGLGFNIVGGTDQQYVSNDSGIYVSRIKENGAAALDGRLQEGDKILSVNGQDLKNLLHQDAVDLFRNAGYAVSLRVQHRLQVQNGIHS
# T16: GST-PTPL1 PDZ domain 2 (Homo sapiens (Human)), Q12923
# T16 chain: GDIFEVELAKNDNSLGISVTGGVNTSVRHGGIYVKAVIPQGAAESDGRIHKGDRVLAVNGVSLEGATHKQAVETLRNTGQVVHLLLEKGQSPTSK
# T17: GST-PTPL1 PDZ domain 4 (Homo sapiens (Human)), Q12923
# T17 chain: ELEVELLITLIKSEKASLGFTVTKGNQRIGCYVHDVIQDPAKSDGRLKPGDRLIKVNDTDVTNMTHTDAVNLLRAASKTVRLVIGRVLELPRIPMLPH
# T18: GST-TIP-1 (Example 3) (human), O14907
# T18 chain: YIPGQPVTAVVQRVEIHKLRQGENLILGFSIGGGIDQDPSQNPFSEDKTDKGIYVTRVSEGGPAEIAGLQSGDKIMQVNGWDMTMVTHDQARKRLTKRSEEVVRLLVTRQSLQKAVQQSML
# T19: GST-KIAA0380 PDZ domain 1 (Homo sapiens (Human)), O15085
# T19 chain: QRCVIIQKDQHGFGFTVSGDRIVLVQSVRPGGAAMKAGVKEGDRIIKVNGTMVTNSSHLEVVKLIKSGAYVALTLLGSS
# T20: GST-MUPP1 PDZ domain 13 (Homo sapiens (Human)), O75970
# T20 chain: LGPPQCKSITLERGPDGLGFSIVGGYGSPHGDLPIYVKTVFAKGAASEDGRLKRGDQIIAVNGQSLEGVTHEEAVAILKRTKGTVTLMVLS
# T21: GST-PDZK1 PDZ domains 2, 3, 4, Q5T2W1
# T21 chain: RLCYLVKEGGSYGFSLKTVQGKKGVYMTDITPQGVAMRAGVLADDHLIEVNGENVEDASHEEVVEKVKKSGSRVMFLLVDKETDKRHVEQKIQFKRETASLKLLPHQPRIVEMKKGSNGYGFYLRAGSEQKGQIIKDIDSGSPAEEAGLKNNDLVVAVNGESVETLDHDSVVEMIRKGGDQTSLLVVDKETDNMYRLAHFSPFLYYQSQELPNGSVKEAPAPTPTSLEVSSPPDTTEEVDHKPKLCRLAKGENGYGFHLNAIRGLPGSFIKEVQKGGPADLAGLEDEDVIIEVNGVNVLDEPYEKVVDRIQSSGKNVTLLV
# T22: GST-Syntrophin 1 alpha PDZ domain 1 (Homo sapiens (Human)), Q13424
# T22 chain: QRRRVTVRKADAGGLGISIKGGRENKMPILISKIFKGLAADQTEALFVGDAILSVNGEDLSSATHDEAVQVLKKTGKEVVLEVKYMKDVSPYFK
# T23: GST-TIP1 PDZ domain 1 (Table 9 insert) (Homo sapiens (Human)), O14907
# T23 chain: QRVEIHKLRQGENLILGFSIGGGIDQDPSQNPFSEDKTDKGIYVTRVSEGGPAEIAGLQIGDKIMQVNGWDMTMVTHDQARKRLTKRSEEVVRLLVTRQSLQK
# T24: GST-novel PDZ gene PDZ domain 2 (Homo sapiens (Human)), Q9H5P4
# T24 chain: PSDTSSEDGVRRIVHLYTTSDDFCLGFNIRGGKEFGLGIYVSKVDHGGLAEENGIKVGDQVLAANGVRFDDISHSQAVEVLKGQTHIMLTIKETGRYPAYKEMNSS
# Assays:
# [1] = target: T1, GST-GRIP 1 PDZ domain 7 (Homo sapiens …); assay: G' assay; further: key of the grades not given here
# [2] = target: T2, GST-KIAA0382 PDZ domain 1 (Canis lupus …); assay: G' assay; further: key of the grades not given here
# [3] = target: T3, GST-KIAA0807(S) PDZ domain 1 (Homo …); assay: G' assay; further: key of the grades not given here
# [4] = target: T4, GST-KIAA1526 PDZ domain 1 (Homo sapiens …); assay: G' assay; further: key of the grades not given here
# [5] = target: T5, GST-KIAA1719 PDZ domain 6 (Homo sapiens …); assay: G' assay; further: key of the grades not given here
# [6] = target: GST-KIAA807 [GST: P08515]; assay: G' assay; further: key of the grades not given here
# Chain of GST-KIAA807 [GST: P08515] (P08515 whole entry, the tested form may be a part): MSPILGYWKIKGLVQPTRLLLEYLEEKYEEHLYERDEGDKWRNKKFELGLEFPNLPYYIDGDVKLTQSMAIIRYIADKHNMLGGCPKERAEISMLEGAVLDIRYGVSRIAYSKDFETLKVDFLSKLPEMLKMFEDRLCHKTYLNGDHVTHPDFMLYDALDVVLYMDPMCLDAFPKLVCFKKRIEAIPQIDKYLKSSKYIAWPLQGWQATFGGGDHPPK
# [7] = target: T6, GST-MINT1 PDZ domain 2 (Mus musculus …); assay: G' assay
# [8] = target: T7, GST-MINT1 PDZ domains 1, 2, Q02410; assay: G' assay
# [9] = target: T8, GST-Shank 1 PDZ domain 1 (Homo sapiens …); assay: G' assay
# [10] = target: T9, GST-AIPC PDZ domain 1 (Homo sapiens …); assay: G' assay
# [11] = target: GST-BAI-1 Associated Protein PDZ domain 5 (Homo sapiens (Human)), Q96QZ7; assay: G' assay; further: key of the grades not given here
# Chain of GST-BAI-1 Associated Protein PDZ domain 5 (Homo sapiens (Human)), Q96QZ7 (Q96QZ7 988-1099): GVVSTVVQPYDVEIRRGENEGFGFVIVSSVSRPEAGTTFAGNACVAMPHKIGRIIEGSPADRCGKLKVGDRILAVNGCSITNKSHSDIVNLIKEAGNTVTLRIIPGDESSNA
# [12] = target: T10, GST-DLG1 PDZ domain 2 (Homo sapiens), …; assay: G' assay
# [13] = target: GST-DLG1 PDZ domains 1, 2 (Homo sapiens), Q12959; assay: G' assay; further: key of the grades not given here
# [14] = target: T11, GST-DLG2 PDZ domain 2 (Homo sapiens …); assay: G' assay
# [15] = target: T12, GST-FLJ 10324 PDZ domain 1 [GST: P08515]; assay: G' assay
# [16] = target: GST-KIAA1634 PDZ domain 1 (Homo sapiens (Human)), Q5TCQ9; assay: G' assay; further: key of the grades not given here
# Chain of GST-KIAA1634 PDZ domain 1 (Homo sapiens (Human)), Q5TCQ9 (Q5TCQ9 401-502): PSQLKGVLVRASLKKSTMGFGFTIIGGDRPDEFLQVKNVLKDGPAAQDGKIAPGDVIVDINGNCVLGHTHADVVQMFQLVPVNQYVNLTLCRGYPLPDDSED
# [17] = target: T13, GST-KIAA1634 PDZ domain 2 (Homo sapiens …); assay: G' assay
# [18] = target: GST-KIAA1634 PDZ domain 4 (Homo sapiens (Human)), Q5TCQ9; assay: G' assay; further: key of the grades not given here
# Chain of GST-KIAA1634 PDZ domain 4 (Homo sapiens (Human)), Q5TCQ9 (Q5TCQ9 844-945): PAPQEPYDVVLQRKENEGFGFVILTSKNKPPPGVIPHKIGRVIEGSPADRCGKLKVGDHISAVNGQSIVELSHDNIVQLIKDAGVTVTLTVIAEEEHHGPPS
# [19] = target: T14, GST-NeDLG PDZ domains 1, 2, Q92796; assay: G' assay
# [20] = target: T15, GST-Outer Membrane PDZ domain 1 (Homo …); assay: G' assay
# [21] = target: GST-PSD95 PDZ domains 1, 2, 3 (Homo sapiens), P78352; assay: G' assay; further: key of the grades not given here
# Chain of GST-PSD95 PDZ domains 1, 2, 3 (Homo sapiens), P78352 (P78352 62-395): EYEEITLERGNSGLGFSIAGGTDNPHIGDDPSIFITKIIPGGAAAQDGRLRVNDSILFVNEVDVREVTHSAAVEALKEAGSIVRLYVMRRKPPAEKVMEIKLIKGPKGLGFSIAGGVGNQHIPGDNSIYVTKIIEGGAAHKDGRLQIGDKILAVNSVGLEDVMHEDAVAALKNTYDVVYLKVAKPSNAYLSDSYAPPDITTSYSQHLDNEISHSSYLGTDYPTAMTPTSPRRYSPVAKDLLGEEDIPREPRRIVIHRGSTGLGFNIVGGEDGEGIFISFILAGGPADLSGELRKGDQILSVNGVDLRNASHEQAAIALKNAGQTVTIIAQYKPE
# [22] = target: T16, GST-PTPL1 PDZ domain 2 (Homo sapiens …); assay: G' assay
# [23] = target: T17, GST-PTPL1 PDZ domain 4 (Homo sapiens …); assay: G' assay
# [24] = target: GST-DLG1 PDZ domains 1, 2 (Homo sapiens), Q12959; assay: G assay titration, PDZ 0.3 ug/ml
# [25] = target: T18, GST-TIP-1 (Example 3) (human), O14907; assay: G assay titration, PDZ 0.3 ug/ml
# [26] = target: GST-BAI-1 Associated Protein PDZ domain 2 (Mus musculus (Mouse)), Q6RHR9; assay: G' assay; further: key of the grades not given here
# Chain of GST-BAI-1 Associated Protein PDZ domain 2 (Mus musculus (Mouse)), Q6RHR9 (Q6RHR9 455-558): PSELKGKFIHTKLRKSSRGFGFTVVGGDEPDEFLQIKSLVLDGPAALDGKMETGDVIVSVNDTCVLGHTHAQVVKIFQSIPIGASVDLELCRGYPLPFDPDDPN
# [27] = target: GST-BAI-1 Associated Protein PDZ domain 6 (Homo sapiens (Human)), Q96QZ7; assay: G' assay; further: key of the grades not given here
# Chain of GST-BAI-1 Associated Protein PDZ domain 6 (Homo sapiens (Human)), Q96QZ7 (Q96QZ7 1143-1233): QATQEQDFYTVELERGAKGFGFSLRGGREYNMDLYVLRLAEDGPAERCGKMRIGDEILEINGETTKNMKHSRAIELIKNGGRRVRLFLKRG
# [28] = target: T19, GST-KIAA0380 PDZ domain 1 (Homo sapiens …); assay: G' assay
# [29] = target: GST-KIAA1634 PDZ domain 5 (Homo sapiens (Human)), Q5TCQ9; assay: G' assay; further: key of the grades not given here
# Chain of GST-KIAA1634 PDZ domain 5 (Homo sapiens (Human)), Q5TCQ9 (Q5TCQ9 other isoform, or with tags, fused parts or gaps): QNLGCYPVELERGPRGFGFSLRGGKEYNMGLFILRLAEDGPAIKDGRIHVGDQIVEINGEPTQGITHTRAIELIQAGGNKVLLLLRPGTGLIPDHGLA
# [30] = target: T20, GST-MUPP1 PDZ domain 13 (Homo sapiens …); assay: G' assay
# [31] = target: T21, GST-PDZK1 PDZ domains 2, 3, 4, Q5T2W1; assay: G' assay
# [32] = target: T22, GST-Syntrophin 1 alpha PDZ domain 1 …; assay: G' assay
# [33] = target: T23, GST-TIP1 PDZ domain 1 (Table 9 insert) …; assay: G' assay
# [34] = target: T24, GST-novel PDZ gene PDZ domain 2 (Homo …); assay: G' assay
binder,measurement,setting,value
LNETTETQRTLLNGDLQTSI (modifications not checked) [SSTR2 (somatostatin recepor 2)],Classification,[1],1 A450 class
same,Classification,[2],1 A450 class
same,Classification,[3],2 A450 class
same,Classification,[4],1 A450 class
same,Classification,[5],1 A450 class
same,Classification,[6],2 A450 class
same,Classification,[7],1 A450 class
same,Classification,[8],1 A450 class
same,Classification,[9],1 A450 class
KDITSDSENSNFRNEIQSLV (modifications not checked) [CD95],Classification,[10],1 A450 class
same,Classification,[11],3 A450 class
same,Classification,[12],1 A450 class
same,Classification,[13],2 A450 class
same,Classification,[14],1 A450 class
same,Classification,[15],1 A450 class
same,Classification,[16],1 A450 class
same,Classification,[17],1 A450 class
same,Classification,[18],1 A450 class
same,Classification,[19],1 A450 class
same,Classification,[20],1 A450 class
same,Classification,[21],1 A450 class
same,Classification,[22],3 A450 class
same,Classification,[23],1 A450 class
same,Kd,[24],15 µM and 20 µM
same,maximum OD (450 nm),[24],2.6 OD and 2.1 OD
same,Kd,[25],20 µM and 25 µM
same,maximum OD (450 nm),[25],2.6 OD and 3.5 OD
ARHRVTSYTSSSVNVSSNL (modifications not checked) [IL-8RA],Classification,[26],1 A450 class
same,Classification,[27],1 A450 class
same,Classification,[28],1 A450 class
same,Classification,[3],1 A450 class
same,Classification,[16],1 A450 class
same,Classification,[29],1 A450 class
same,Classification,[30],1 A450 class
same,Classification,[31],1 A450 class
same,Classification,[21],1 A450 class
same,Classification,[32],1 A450 class
same,Classification,[33],1 A450 class
same,Classification,[34],1 A450 class
